In this test the target is T1, purified EGFR (epidermal growth factor receptor) (human, UniProt P00533 25-1210).
T1 construct: epidermal growth factor receptor (EGFR), human, full length protein isolated from A431 cells; also called EGFR protein; source: bought: ENZO (BML-SE116), full length protein isolated from human A431 cells
As to the kind of experiment: co-IP; in vitro binding assay: 1 μg purified EGFR with 10 μg FLAG-PGRMC1 (a.a.44–195) treated with 50 μmol l^−1 haemin, anti-FLAG (M2) agarose; 20 mmol l^−1 HEPES-NaOH (pH 7.9), 100 mmol l^−1 NaCl, 0.2 mmol l^−1 EDTA, 10% glycerol, 0.1% NP40, room temperature. The conditions noted are these: both partners purified.

B1: FLAG-PGRMC1 wild-type (a.a.44–195) (domain or fragment)
chain: not shown
notes: progesterone-receptor membrane component 1 (PGRMC1), human, cytosolic domain a.a.44–195; The cloning of the FLAG-tagged 44–195 construct is not described; probably made like the other a.a.44–195 proteins (pGEX6P-1, E. coli BL21 (DE3), GST cleaved); Used as apo form or treated with 50 μmol l^−1 haemin; also called FLAG-PGRMC1 wt (a.a.44–195); cytosolic domain of wild-type PGRMC1
In the case of B1, the binding result is “binds”.
